Columns and labels:
[1] = target: chimeric RyR (chiRyR): rabbit RyR1 carrying four Spodoptera frugiperda RyR residues of the diamide-binding pocket (rabbit) (UniProt P11716); assay: cryo-EM structure; 5 mg/ml purified chiRyR samples with 5 mM caffeine, 2 mM ATP, 100 µM CaM1234, Ca2+, 2% or 5% DMSO, with or without diamide (50 µM FLU or TET; 625 µM CHL); 1 h at room temperature; C4 symmetry in refinement
[2] = target: chiRyR-I4657M/G4819E (chiRyR carrying the two resistance mutations) (rabbit) (UniProt P11716); assay: as above

## chimeric RyR (chiRyR): rabbit RyR1 carrying four Spodoptera frugiperda RyR residues of the diamide-binding pocket, P11716 1-5037 (receptor)
[1]
  stoichiometry N: 4

## chiRyR-I4657M/G4819E (chiRyR carrying the two resistance mutations), P11716 1-5037 (receptor)
[2]
  stoichiometry N: 4
